From the domain aggregation screens of Martell et al. (2025)

Test: soluble fraction after stress (log2 fold change); higher = more stays soluble; pooled small domains, quantitative proteomics
Settings: stress: 50 degC
In short: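 Quantitative proteomics served as the high-throughput read-out for pooled custom libraries of small protein domains. Each was stressed at 50°C. Aggregation propensity is expressed as the base-two log fold change in soluble protein after stress. A higher value means a larger share of the protein remains in solution.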

Sequence | soluble fraction (log2)
HMPGRKKLAIIYKNDYIGAFNLADSYRDSYEVSMYAFPKKVGKLLNRLELQGFNAYVIYDKDNEENNFNTI | -1.65
HMQMEDTDALLQVAKEVVAENQDTVEAYLGGREKAFASLIGAAMKKTRGKANPKVIRQLILDLIQ | 0.254
HMLILDTDGRYVIKRGDSLSEILEKIANGSNINLNLLKRAFVTANPKAFKRANPNWMYANAR | -0.113
HMESILDDFPGLGEKRKKALLEHFGSISKIKAATVGQLREVDGIGFETAAALREFLDANFPA | 0.158
HMEKPTEITLSNRVSVQELAEKMYVSETDIIRTLFLDGRIININQVLDIDTAIRVGEQLGIKIKII | -0.496
HMQSSDQTDNIYENAVSIVLETGKASASHLQRVLGIDYNLAAHLIDKMEDGGLLSPPNYLGHRDVYGYT | 0.0916
HMNDVEAIDDALKDLHKVSPDLAALVEMKFFGGMTEPEISEILGVSERTVRREWEKARAALLVLLE | -1.41
HMTYNIPEHYQTIDVKEYVRKLVSDGDSDQIGRVEMELTEFETRNLFPVLKVLIYIIDTMRK | -2.45
HMKISQSRKAGKLVLESELKRGGVSLDQYRGGRMSRILELIGVKSLNELLTDLGTGKKTGALVAERFFSGL | -0.444
HMLDQAVPVFETPKYAVSYIQNRLVEMKAASPEEAASRFYESISESERRGLFEALLIKEAEES | -0.00154
HMISFHEYLTQLLDEKGLTKAQVITDSNIQKNYGYQIFDGSKTPSRDKVIAIALAMQLTLDEANRLLHLSN | -1.47
HMGAISGEQREFYTVFRGHLNSHVGEFKVEDIENLLMKAKTEVPDLLEEEFLKMGEAILNRYRN | -0.0826
HMDKNLQYADTPKGKLREYIKNLPNGSTVNRQKLAEEFGIKKQSMGTVTEVFQEFPDKNFKFVNP | 0.119
HMNEDFSEIIAAVKKFAVDNLSLSTLSDEELEEQIKTITDNMIGNRYVSIKNRVDIAQQVFSSIR | -0.0581
HMKVFTEDEMLEKIKEYLSTNSYINRRVMETQFGLRQNIALKWLKHFTEIGVLRKEGERNSPIYFLNN | ≥ 0.62
HMEKEYMKNVVGMEYRQARVLLGDMGLELAFQPVYETSDKYPTDVVVSTEPAADQPLTKGQTVILHIST | 0.288
HMDSIDVQQKKLLTDIELGNIEGIKLFLKRHNNTINFLTIKGFHPLVYAVRNNNMEIVNLFLTT | 0.172
HMIDTPQELARLLRLLDEQNFEAEILFHKLRPDLLHLWSKEHVTRIAEALDAFDYQMALTLLNASP | -2.23
HMSESLRDLVLSLIPEDGSTIGNRALITRLREDLPDLTDEDYHEVRDQLIAEGVLAKGRGQGGSVARANG | 0.205
HMQNYNLTQQEKKVLQLLVSGKSYKMIAAELNVAFDTVKSHITNIYSKLHVHSGTEAVSVAIRDKI | -0.444
HMETGNEDYRVGKELAYDGNYKAATIYLMKSIKDDPNNPDAFNMLGFSHRKLGNNDEAYIYYNKALEL | -0.387
HMATLQLPVPKITLYPGELIRSDHLTDQRFNARALYHSAVYKSREDIVGKVARRTLLPGQPIPVNALR | -0.057
HMAHYYVRNGYYYYQRRIPLDLRKFYSGANIKASLKTKDPAIAALFVAKFDRQYDAEFAQRRLNPD | -0.482
HMNPSIALHDWLQSSEFKGSINLFAAALGMNPRTVEAWVYGRSTPSRRFWAKLYQITNLSRFRL | -0.836
HMALIGSNLRHLRNERKLSQQELADLIRVGRTTIANIEANLANPGHKTLLEIVKVFDITIDELLHTDLTK | -0.886
HMDSIGTQIRKLREEAEMPLRKLSALLDIDQSTLSKIERDERRANTQMIEQIAKIFKVNKEQLLVA | -0.926

Sequence | soluble fraction (log2)
HMQAKNGTVTGSVVNVRGGAGTQYAVKGKASRGTKVTILGQQSSWLNVRLDNGVTGWIHADYVQISE | 0.463
HMYHADLIGLEARSTAGDKLGEVNAVYNFGAGDLIEIKMTDGNLEMLPFTRQYVPTVSIKDGFIIVQM | -0.628
HMTGMEASLSKLLQGEQFADLRKALIDKGIRKLEAFKRLNLWVFMNRNRLYSIGQRQTVYSTLQRALASE | 0.0329
HMSETIVFGQQKAINTLSSEAGLSSAELNNYLKKRYQRPLFQLTVSEGADLIQGFQDGTLTKASITQYVSQ | -0.0548
HMSQKVQEDFLGDIRKNEIAVTVFLINGVKLQGVITWFDDASILLRRDGHTQLIYKHAVSTIMPGVAVDI | -0.118
HMVDTEVFSRLLRKVLAGDVTSAIRILEELIVGGRELSQFVGDFTWYMRNLLLVKTSDNPEEA | -0.397
HMHRFAVLDTVREVAAGGVAATLSIGVGRDADSFDALFKNASMALEMALSRGGDQAVVKDRMNFQFYGG | 0.0659
HMIMTIYEYIARNNPTGAKRVIESFGYVVTQPKKMGDNLRMLVAQEGEPALKAVVDLHPDKDLILEV | -2.87
HMADQVLVMTRAVGQGDIVRNADIGLTSVAVDRAVATIPASQLDKIVGRHALVDLSPGQLLGSHSVGE | 0.035
HMDTPMYMAIIEEVRFQIANEILKEGEQLPSIRNLAKTLKVSVITVKRAYKELEEAGYITTIPAKGSKVS | -1.43
HMSSQGQNTKTGTVTASALYVRSGAGTNYSQIGYLLKNTKVEIVGQTGSWYKIKFGSGTGYVSSKYIK | -0.652
HMKNTYTVVSGDTLWGIASRKLGGGSNWTKIYDANAATIESVANRRRGGRGSDHGHWIYPGTVLTI | -0.0158
HMADPAVLIAELFRAMPEKRFSVKNLISATGAETREQKDYVREVVHSLSREGMIEQVAEGKYRLSASE | 0.171
HMSDPELNDNEKKIYDIIFNKKSMDLTELKNLSELSNKQWDKGIKSLSKQDFVKVIKTEEALIVELV | -0.302
HMGQDGFIGLEAAKKLVLQKLGLTSAEFIKAELDAEDRKYELELIVDGIEYDFDIDAYSGAFLKQEQETV | -0.215
HMKEETEMVTIPDVTGKPLTEAANLLREAKLDYLAESTGTSVTKQMPLPGAEVMVNTTVLLYTG | 0.156
HMDGIPVPDVKGTVEAEATATLKNSGFEVTKTQDFSDTVEAGKVISQNPAGGSSAASGSSVTLVISQGPN | 0.0569
HMSMSVLFSELDQKDAGVIVEKLKERKIPYELQSGGSAIMVPANVLHETRLQLAAEGLPQSS | 0.0439
HMTGKLGKIILQPKQTVYGITKKYQISESELRRLNPQLDSHLKIGDEVILPAENIKKFGGNQPVAVS | 0.311
HMSRGAIVTGTVIEKNQSGIYVDLGYKSDGIVPIEEFDGEESKYNVGDQIRVYVKKVDDGHGQLML | 0.126
HMGFVATRSRKFLPFSEARAITRGLGFSNQKDYKEWIKGNGNELLLPFNPWRTYGDSGWKGWKDFLGTDKA | -1.03
HMIDFDEQGNLWVHEMGPRHGDELNLIEKARNYGYPTVSQGDHYSGVKISNHEDIPIFKSPEKAWVPAISP | -0.0541
HMTKASEELYFRLKEELGTGVIVEHKKYGEGVVTQLDDRLVHIMFQDDTLRMMDLKILANAGLLKVK | 0.189
HMVVPSNPDELKGSFSLAEVASGYGLEVAAILEKAGWPADTDPNVKMRDAANAIGRDSTDIRNAVKALLKS | -0.0505
HMQDTTLTSQILRVPSSVNINDLANVLKSLAGKNTVVAPYKAANTIIITGYAPNVRRVLSLANELIPRLDV | -0.53
HMDAVTYAKGSSGETVREIQQLLLDWGYYSGEVDGIFGSRTEDAVEYFQRKNGLTVDGKVGPATLEALGIS | -0.0183

Sequence | soluble fraction (log2)
HMDSVSAVRTTHLNSYVLLLEKDGMAAATISRYIASMKGFFEYLFREHMIEEDPAFTLKPPKV | -0.0799
HMPAKIIKKSFVYNPIHRDTEYLAQFLQGEGQVSASGDKLVYYGTVEDISRIKSVLQSVDTPS | 0.0363
HMGLDQNTLDRVDDINDTLATGIEIGPETRGTIEELNETLANGLKAGFDEETLARVDELLRVVEDGLK | 0.0149
HMVMVVDVLKALSNNSSDKFFNTSISNAIKAQEDSQEDFVTLFGIEYEKLSPNNGLAVIFTSQ | 0.425
HMGNQALSSVLSDIAGIGPVKTKELLRVYPDLDSLRQAPVEEVAKVKGIGRQLAQKIHDHFSSR | 0.189
HMSDSLVLTGVAYVDGKPVVTLFDKVKKESLVVTDQPNLKGWTLVEATQSSDIKRATAKVNIGGEPVSIRY | 0.117
HMTKNEFLASFQNELQKRHIPDWEDVVSEYEQHFALKQADGFSEEEIAAKLGAPAELAAQFEA | -0.0437
HMIHMNMGQKINQLRLQKGFTLEELGNLVGVGKSTVRKWENGMIANMKRDKILLVAEALDTSPAYLMGWD | -1.54
HMSWAAQVVDKMTNDQLIKSLNEIVNTGKQLGLDITVEQNGDKNFIMTVKDSKGNVQLVTPIG | -0.0133
HMSGPVITEERNIANALISGLANMKETPTREQVERKAQQIAELFGYTGDLRNIITEAMISVDT | 0.059
HMITNEDINIKKLLVVMKDTPLSANEIMDKLNIKSKETLRNMYLDPAIKKGLINLTIPDKPTSKNQKYYK | -0.0903
HMIKITLGWVISVRRHDLGYTQHKMARAVGISDLTVSRIESDDGITPDNNTLRKIAEYLKIDYNSLLTLK | -1.73
HMQDSSGENNPQSKLTQQQVDLLMKDLKETNVEFDKLAEKYNVSIKTIRNVNTGIAWRKNDITYPIREP | -0.204
HMKRKAIDQSWQPDKEAIEILSKAGVNEEFIKEEIPEFILYWSEKGEESDTWNSKFIAQVRRQWAKTQH | -0.0567
HMGGTATDYYNQGRTAYDVGDYNGALMNFQEAVRLDPRYGEAYYGLGKAYEALNMQNQALDAYLSAI | -0.16
HMSSQLETTFATLIGKRVSIRLHDPEGGFRDILGHLESPYSLRNRHGNLIEFAHDQIFLWREVI | -0.951
HMPVFSLTPRELEILEWMSTPNTYRQIAAQLSVSEETVRSHAKNILEKMRQPNRAQAVLAAVKMGLIKL | -0.819
HMEFLLAIQPFVLLTDHANLTFLREQTDSMMKRIQINISGFEIEFRYVPGLTNILPDKMSRV | -0.0431
HMKVEFTPAYLKKFKANKNAWKFYEAQTNTYKKQSAWYVISAKQEETRLRRLDLLIYDSENGIHIKPLRR | -2.6
HMSSLTPRETEVLSRMAQGDANTSIAERLVITEKAVQKHINAIFAKLGLAEEPTSARRVLAVLAFLR | -0.512
HMEHIDVSGRAFDVSVSRLKRARRLTMRIDTHKQLVKISAPLHVESSTIRAFLARNQNWLEQQVEKR | -0.881
HMALMLGGLIVYLNTTAPRDDIDLIELSKDTKAMAAFGNKLASPDYNGKQFALDWHELSRDEIMSKYFS | -0.987
HMVRSKLEIVPVPEDAVVKIAGLKRLTYQAYQNEDVPYMVYKNGYEAQSGTVFMDTDKTLTVTLEESP | -0.0311
HMKAPLTFVIEGKEYEAFDQYKTGAELKQLAGIPLDTELFLSISKPYQDELIENEKQVNLARPETEYFFVK | -0.0489
